The text below walks through data of IntAct's records for PubMed 16698552.

First the molecules themselves.
B1: Eukaryotic translation initiation factor 4 gamma 1 (Homo sapiens), Q04637-8 (parent)
chain: MNKAPQSTGPPPAPSPGLPQPAFPPGQTAPVVFSTPQATQMNTPSQPRQHFYPSRAQPPSSAASRVQSAAPARPGPAAHVYPAGSQVMMIPSQISYPASQGAYYIPGQGRSTYVVPTQQYPVQPGAPGFYPGASPTEFGTYAGAYYPAQGVQQFPTGVAPTPVLMNQPPQIAPKRERKTIRIRDPNQGGKDITEEIMSGARTASTPTPPQTGGGLEPQANGETPQVAVIVRPDDRSQGAIIADRPGLPGPEHSPSESQPSSPSPTPSPSPVLEPGSEPNLAVLSIPGDTMTTIQMSVEESTPISRETGEPYRLSPEPTPLAEPILEVEVTLSKPVPESEFSSSPLQAPTPLASHTVEIHEPNGMVPSEDLEPEVESSPELAPPPACPSESPVPIAPTAQPEELLNGAPSPPAVDLSPVSEPEEQAKEVTASMAPPTIPSATPATAPSATSPAQEEEMEEEEEEEEGEAGEAGEAESEKGGEELLPPESTPIPANLSQNLEAAAATQVAVSVPKRRRKIKELNKKEAVGDLLDAFKEANPAVPEVENQPPAGSNPGPESEGSGVPPRPEEADETWDSKEDKIHNAENIQPGEQKYEYKSDQWKPLNLEEKKRYDREFLLGFQFIFASMQKPEGLPHISDVVLDKANKTPLRPLDPTRLQGINCGPDFTPSFANLGRTTLSTRGPPRGGPGGELPRGPQAGLGPRRSQQGPRKEPRKIIATVLMTEDIKLNKAEKAWKPSSKRTAADKDRGEEDADGSKTQDLFRRVRSILNKLTPQMFQQLMKQVTQLAIDTEERLKGVIDLIFEKAISEPNFSVAYANMCRCLMALKVPTTEKPTVTVNFRKLLLNRCQKEFEKDKDDDEVFEKKQKEMDEAATAEERGRLKEELEEARDIARRRSLGNIKFIGELFKLKMLTEAIMHDCVVKLLKNHDEESLECLCRLLTTIGKDLDFEKAKPRMDQYFNQMEKIIKEKKTSSRIRFMLQDVLDLRGSNWVPRRGDQGPKTIDQIHKEAEMEEHREHIKVQQLMAKGSDKRRGGPPGPPISRGLPLVDDGGWNTVPISKGSRPIDTSRLTKITKPGSIDSNNQLFAPGGRLSWGKGSSGGSGAKPSDAASEAARPATSTLNRFSALQQAVPTESTDNRRVVQRSSLSRERGEKAGDRGDRLERSERGGDRGDRLDRARTPATKRSFSKEVEERSRERPSQPEGLRKAASLTEDRDRGRDAVKREAALPPVSPLKAALSEEELEKKSKAIIEEYLHLNDMKEAVQCVQELASPSLLFIFVRHGVESTLERSAIAREHMGQLLHQLLCAGHLSTAQYYQGLYEILELAEDMEIDIPHVWLYLAELVTPILQEGGVPMGELFREITKPLRPLGKAASLLLEILGLLCKSMGPKKVGTLWREAGLSWKEFLPEGQDIGAFVAEQKVEYTLGEESEAPGQRALPSEELNRQLEKLLKEGSSNQRVFDWIEANLSEQQIVSNTLVRALMTAVCYSAIIFETPLRVDVAVLKARAKLLQKYLCDEQKELQALYALQALVVTLEQPPNLLRMFFDALYDEDVVKEDAFYSWESSKDPAEQQGKGVALKSVTAFFKWLREAEEESDHN

The variants in the experiment derive from B1. The note with it: with if4g1_human EIF4G1, Q04637.
Regarding I1278A;F1279A;V1280A, the “effect of a mutation on the interaction” value is given as “disrupting interaction”.
